Substrate in this data set: COC1=C(OC)C(=O)C(CC=C(C)C)=C(C)C1=O
Description: PRODH steady-state kinetics. It is filed as biochemical, Rhodobacter capsulatus. The note with it: 200 mM proline fixed, 23 °C, 20 mM Tris pH 8.0, 10% glycerol.

B1: RcPutA (Rhodobacter capsulatus SB 1003) (protein)
chain: MTDLSALGPKAKFAPEAEVLQALVAQAALPQPQLDRIAARGADLVARIRAEAKPSLMEHFLAQYGLSTREGVALMCLAEAMLRVPDTATIDALIEDKIAPSDWGKHLGTAASSLVNASTWALMLTGKVLDDGAGGIAGTLRGAMRRLGEPVIRAAVGQAMREMGRQFVLGETIEKALERAEKREAEGYTFSYDMLGEAALTAADAERYRLAYAQAITAIGKAATRGSIAANPGISIKLSALHPRYEVAQEARVMAELVPVVRDLARAAARAGIALHIDAEEQDRLALSLRVMAAVIADPETAGWEGFGAVVQAYGKRAGAAIDALAAMARAAGRRINIRLVKGAYWDAEMKRAQVEGHPGFPLFTSKTGTDVAYICLAAKLFGLNDCIYPQFATHNAHTVAAVLEMAAGRPFEFQRLHGMGARLHDIVLRETGGRCRIYAPVGAHRDLLAYLVRRLLENGANSSFVNQIVNESVPPAEVAACPFAALPTARAPRGLLAPADLFGAGRVNAQGFDLSDPEVLARIEAARDVTLPDAAPIVAGPVSGTLRPVRNPATGAVVAQVTEADAATVALALDAAQVWSAPAATRAAVLCRAADLYEENFGPIFAALAQEAGKTLGDAVSELREAVDFLRYYAAEGAADTRPPRGAVVAISPWNFPLAIFTGQVAAALMAGNAVLAKPAEQTPIIAALAVRLLHQAGVPETALQLLPGDGPTVGAALTRDPRVAGVVFTGSTETAQIIARAMAAHLAPGTPLIAETGGLNAMVVDSTALPEQAVRDVVASAFRSAGQRCSALRCLYVQDDIAPHLIGMLKGAMEELVSGDPARLSTDVGPVIDAEAKAGIETYLAANKARILHRSTAPEGGHFVAPALLQVGGIADLEREIFGPVLHLATFAAEDLPAVIAAINARGYGLTFGLHSRIDARVETVAETIRAGNIYVNRNQIGAVVGSQPFGGEGLSGTGPKAGGPLYLNRFYAPEPVVAVGGWTEAATPILPEARETQLDEIFLPGPTGELNRLTRHQRGPILCLGPGAEAASAQAAAVVALGGQAVQASGAVSPKALETLTPLAGVLWWGAAEMGRAYAQALAVRPGPLVPLITAKPDLAHVAHERHLCVDTTAAGGNAALLAG
For B1, the Km came out at 94 ± 19 µM and the kcat came out at 2.0 ± 0.1 s⁻¹.

For the origin of these results see PMC4159212.
